Test [1] deals with T1, FcγRIIa H (human, UniProt P12318 34-217).
T1 construct: extracellular domain; Soluble His-tagged extracellular domain expressed in FreeStyle293 cells; also called FcγRIIa type H; FcgRIIa H; not shown: His tag attached to the C terminus
T1 sequence (looked up): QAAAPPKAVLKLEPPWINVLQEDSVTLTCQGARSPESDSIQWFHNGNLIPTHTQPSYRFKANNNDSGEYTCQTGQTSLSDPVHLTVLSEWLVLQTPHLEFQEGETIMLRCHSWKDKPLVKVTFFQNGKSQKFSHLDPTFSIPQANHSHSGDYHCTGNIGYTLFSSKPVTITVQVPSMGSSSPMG
Description: SPR (Biacore); He/Con_2aH divided by He/Con_2b (FcγRIIb) of the same antibody. The method, then: The heterodimerized antibodies He Abs in which one of the H chains was introduced with an alteration were assayed for their binding activities to each activating FcγR and inhibitory FcγR according to the method described in Example 4. […] The activating FcγRs in FIGS. 26, 27, 28, and 29 are FcγRIa, FcγRIIa (R), FcγRIIa (H), and FcγRIIIa, respectively.
(§1) Analysis of interaction between objective antibody and the FcγR was carried out using Biacore T100 (GE Healthcare). HBS-EP+ (GE Healthcare) was used as the running buffer, and the measurement temperature was set to 25° C. Chips produced by immobilizing the antigen peptide by the amine coupling method to a Series S Sencor Chip CM5 (GE Healthcare), or alternatively, chips produced by allowing preliminarily biotinylated antigen peptides to interact with and immobilize onto a Series S Sensor Chip SA (certified) (GE Healthcare) were used. Antibodies of interest were captured onto an antigen peptide-immobilized chip, and allowed to interact to each FcγR diluted with running buffer. To regenerate and repeatedly use the chip, the antibodies captured on the chip were washed off by reacting 10 mM glycine-HCl, pH 1.5.

Test [2] concerns the target T1, FcγRIIa H. Description: SPR (Biacore), captured antibody, FcγR analyte; relative to GpH7-A5/GpH7-B3/GpL16-k0 = 100. The method, then:
as §1
(§2) The FcγR-binding activity of each antibody was assessed primarily using as an indicator the FcγR-binding activity and dissociation constant for FcγR.
On the technique in general: In SPR one partner is held on a chip, and binding of the other changes the refractive index at the surface.

For test [3], the target named is T2, FcγRIIb (human, UniProt P31994 43-217).
T2 construct: extracellular domain; Soluble His-tagged extracellular domain expressed in FreeStyle293 cells; also called FcgRIIb; 2b; not shown: His tag attached to the C terminus
T2 sequence (looked up): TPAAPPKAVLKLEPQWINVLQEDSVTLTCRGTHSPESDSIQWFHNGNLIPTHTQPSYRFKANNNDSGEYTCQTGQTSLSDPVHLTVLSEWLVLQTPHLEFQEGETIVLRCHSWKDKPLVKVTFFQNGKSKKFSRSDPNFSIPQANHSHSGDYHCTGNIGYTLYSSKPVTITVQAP
The test is described as above. The method, then: as §1, §2

Test [4] deals with T3, FcγRIIIa extracellular domain with C-terminal His tag (human, UniProt P08637 17-208).
T3 construct: extracellular domain; also called 3a; FcgRIIIa
T3 sequence (P08637 17-208): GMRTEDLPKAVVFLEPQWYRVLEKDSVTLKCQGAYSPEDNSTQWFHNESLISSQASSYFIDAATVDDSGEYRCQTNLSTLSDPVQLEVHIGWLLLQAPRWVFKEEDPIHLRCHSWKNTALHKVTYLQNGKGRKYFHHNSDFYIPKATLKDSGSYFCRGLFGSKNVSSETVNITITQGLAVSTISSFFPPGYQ
Description: SPR (Biacore), antibody captured on antigen-peptide chip, FcγR analyte, relative binding.

Test [5] addresses T4, FcγRIa (human, UniProt P12314 16-292).
T4 construct: extracellular domain; also called FcgRI; 1a; not shown: His tag at the C terminus
Kind of test: SPR (Biacore), antibody captured, FcγR as analyte; binding as % of GpH7-A5/GpH7-B3/GpL16-k0.

Test [6] addresses T5, FcγRIIb (human, UniProt P31994 43-217).
T5 construct: extracellular domain; also called FcgRIIb; 2b; not shown: His tag at the C terminus
T5 sequence (looked up): T2 sequence (looked up)
The description is as above.

The text below walks through data of patent US20180155451A1 (published 2018).

T4 sequence (P12314 16-292): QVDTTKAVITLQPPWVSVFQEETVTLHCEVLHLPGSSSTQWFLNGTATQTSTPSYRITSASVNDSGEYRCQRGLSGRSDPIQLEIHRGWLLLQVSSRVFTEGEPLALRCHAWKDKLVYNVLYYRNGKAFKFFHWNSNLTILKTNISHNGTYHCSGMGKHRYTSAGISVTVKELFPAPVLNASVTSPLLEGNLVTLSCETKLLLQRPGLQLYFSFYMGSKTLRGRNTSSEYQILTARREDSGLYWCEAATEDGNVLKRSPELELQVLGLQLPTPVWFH

B1: GpH7-A5/GpH7-B3 variant A327_03V/GpL16-k0 (antibody, human IgG1, kappa)
heavy 1: not shown
heavy 2: not shown
light: DIVMTQSPLSLPVTPGEPASISCQASESLVHSNRNTYLHWYLQKPGQSPQLLIYKVSNRFSGVPDRFSGSGSGTDFTLKISRVEAEDVGVYYCSQNTHVPPTFGQGTKVEIERTVAAPSVFIFPPSDEQLKSGTASVVCLLNNFYPREAKVQWKVDNALQSGNSQESVTEQDSKDSTYSLSSTLTLSKADYEKHKVYACEVTHQGLSSPVTKSFNRGEC
notes: Heterodimerized anti-glypican-3 IgG1; mutation in the GpH7-B3 H chain only; also called He Ab
B1 showed a He_2aH/2b in test [1] of 0.54 ratio. The He/Con_2aH in test [2] is 51 relative (control = 100). Moreover, the He/Con_2b in test [3] is 94.7 relative (control = 100).

B2: GpH7-B3 variant Y300_08L/GpL16-k0 (homodimerized antibody, Ho Ab) (antibody, human IgG1, kappa)
heavy: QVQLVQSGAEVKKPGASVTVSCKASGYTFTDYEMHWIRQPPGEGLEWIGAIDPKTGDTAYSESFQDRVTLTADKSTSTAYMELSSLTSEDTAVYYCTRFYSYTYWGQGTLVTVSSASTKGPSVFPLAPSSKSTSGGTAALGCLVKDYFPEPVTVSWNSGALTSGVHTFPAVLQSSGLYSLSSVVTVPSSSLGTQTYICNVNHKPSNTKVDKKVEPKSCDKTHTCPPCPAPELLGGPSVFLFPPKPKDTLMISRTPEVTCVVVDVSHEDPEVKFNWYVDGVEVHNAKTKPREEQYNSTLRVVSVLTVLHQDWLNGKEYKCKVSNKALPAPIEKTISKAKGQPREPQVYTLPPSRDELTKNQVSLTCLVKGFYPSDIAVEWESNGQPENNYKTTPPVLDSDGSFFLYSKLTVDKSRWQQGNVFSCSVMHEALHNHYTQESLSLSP
light: B1 light
notes: Mutation in both H chains; also called Y300_08L Ho Ab
Regarding B2, the Ho/Con_3a in test [4] was 105 % of GpH7-B3/GpL16-k0 (=100).

B3: GpH7-B3 variant S337_16H/GpL16-k0 (homodimerized antibody, Ho Ab) (antibody, human IgG1, kappa)
heavy: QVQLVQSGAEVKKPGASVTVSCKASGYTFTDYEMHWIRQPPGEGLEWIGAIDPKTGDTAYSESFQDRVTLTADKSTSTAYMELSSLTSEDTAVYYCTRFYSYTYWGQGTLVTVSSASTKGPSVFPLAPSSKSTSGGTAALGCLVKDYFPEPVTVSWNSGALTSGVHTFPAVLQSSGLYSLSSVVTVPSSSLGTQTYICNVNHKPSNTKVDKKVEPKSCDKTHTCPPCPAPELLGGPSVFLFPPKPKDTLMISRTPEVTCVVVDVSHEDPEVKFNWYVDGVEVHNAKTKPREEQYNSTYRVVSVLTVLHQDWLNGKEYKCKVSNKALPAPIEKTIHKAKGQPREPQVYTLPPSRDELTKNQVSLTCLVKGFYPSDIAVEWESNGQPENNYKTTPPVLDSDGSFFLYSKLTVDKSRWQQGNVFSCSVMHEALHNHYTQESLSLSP
light: B1 light
notes: Mutation in both H chains; also called S337_16H Ho Ab
Turning to B3, in test [4], the Ho/Con_3a is 112 % of GpH7-B3/GpL16-k0 (=100).

B4: GpH7-A5/GpH7-B3 variant Y296_20W/GpL16-k0 (heterodimerized antibody, He Ab) (antibody, human IgG1, kappa)
heavy 1: not shown
heavy 2: not shown
light: B1 light
notes: Mutation in one H chain only; also called Y296_20W He Ab
In the case of B4, in test [4], the He/Con_3a is 135 % of GpH7-A5/GpH7-B3/GpL16-k0 (=100).

B5: GpH7-A5/GpH7-B3 variant S324_06M/GpL16-k0 (heterodimerized antibody, He Ab) (antibody, human IgG1, kappa)
heavy 1: not shown
heavy 2: not shown
light: B1 light
notes: Mutation in one H chain only; also called S324_06M He Ab
With B5, the He/Con_3a in test [4] was 113 % of GpH7-A5/GpH7-B3/GpL16-k0 (=100).

B6: GpH7-A5/GpH7-B3 variant T335_06M/GpL16-k0 (heterodimerized antibody, He Ab) (antibody, human IgG1, kappa)
heavy 1: not shown
heavy 2: not shown
light: B1 light
notes: Mutation in one H chain only; also called T335_06M He Ab
Regarding B6, the He/Con_3a in test [4] is 102 % of GpH7-A5/GpH7-B3/GpL16-k0 (=100).

B7: GpH7-B3 variant S239_18N/GpL16-k0 (homodimerized antibody, Ho Ab) (antibody, human IgG1, kappa)
heavy: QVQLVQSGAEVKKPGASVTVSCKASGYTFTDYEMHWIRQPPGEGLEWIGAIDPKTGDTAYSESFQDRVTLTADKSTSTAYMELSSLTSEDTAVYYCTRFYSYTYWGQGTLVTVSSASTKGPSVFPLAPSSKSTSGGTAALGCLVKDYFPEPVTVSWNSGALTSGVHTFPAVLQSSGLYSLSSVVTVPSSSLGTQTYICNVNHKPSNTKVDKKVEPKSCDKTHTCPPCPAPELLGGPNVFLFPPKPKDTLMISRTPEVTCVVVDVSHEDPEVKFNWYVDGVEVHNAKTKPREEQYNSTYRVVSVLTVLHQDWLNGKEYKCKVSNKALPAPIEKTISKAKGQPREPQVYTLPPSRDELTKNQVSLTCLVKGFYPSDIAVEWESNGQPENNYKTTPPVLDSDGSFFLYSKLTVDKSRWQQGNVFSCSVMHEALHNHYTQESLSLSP
light: B1 light
notes: Mutation in both H chains; also called S239_18N Ho Ab
As to B7, the Ho/Con_3a in test [4] was 116 % of GpH7-B3/GpL16-k0 (=100).

B8: GpH7-A5/GpH7-B3 variant S337_01G/GpL16-k0 (heterodimerized antibody, He Ab) (antibody, human IgG1, kappa)
heavy 1: not shown
heavy 2: not shown
light: B1 light
notes: Mutation in one H chain only; also called S337_01G He Ab
On to B8, for which, in test [4], the He/Con_3a is 102 % of GpH7-A5/GpH7-B3/GpL16-k0 (=100).

B9: GpH7-B3 variant T335_06M/GpL16-k0 (homodimerized antibody, Ho Ab) (antibody, human IgG1, kappa)
heavy: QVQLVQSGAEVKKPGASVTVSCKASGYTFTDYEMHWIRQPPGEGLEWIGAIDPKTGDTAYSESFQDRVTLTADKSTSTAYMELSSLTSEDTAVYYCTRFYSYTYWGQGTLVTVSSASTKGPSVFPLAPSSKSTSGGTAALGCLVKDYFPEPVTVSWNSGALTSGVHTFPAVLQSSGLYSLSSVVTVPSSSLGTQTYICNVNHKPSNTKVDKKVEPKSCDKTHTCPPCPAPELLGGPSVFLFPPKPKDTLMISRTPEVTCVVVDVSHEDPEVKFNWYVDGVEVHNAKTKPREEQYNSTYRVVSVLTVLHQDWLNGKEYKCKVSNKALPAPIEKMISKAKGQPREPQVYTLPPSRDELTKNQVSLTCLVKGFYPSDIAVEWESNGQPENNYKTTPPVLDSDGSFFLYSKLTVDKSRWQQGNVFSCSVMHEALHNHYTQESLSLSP
light: B1 light
notes: Mutation in both H chains; also called T335_06M Ho Ab
In the case of B9, in test [4], the Ho/Con_3a is 107 % of GpH7-B3/GpL16-k0 (=100).

B10: GpH7-A5/GpH7-B3 variant S324_09D/GpL16-k0 (heterodimerized antibody, He Ab) (antibody, human IgG1, kappa)
heavy 1: not shown
heavy 2: not shown
light: B1 light
notes: Mutation in one H chain only; also called S324_09D He Ab
Regarding B10, the He/Con_3a in test [4] was 101 % of GpH7-A5/GpH7-B3/GpL16-k0 (=100).

B11: GpH7-B3 variant S337_01G/GpL16-k0 (homodimerized antibody, Ho Ab) (antibody, human IgG1, kappa)
heavy: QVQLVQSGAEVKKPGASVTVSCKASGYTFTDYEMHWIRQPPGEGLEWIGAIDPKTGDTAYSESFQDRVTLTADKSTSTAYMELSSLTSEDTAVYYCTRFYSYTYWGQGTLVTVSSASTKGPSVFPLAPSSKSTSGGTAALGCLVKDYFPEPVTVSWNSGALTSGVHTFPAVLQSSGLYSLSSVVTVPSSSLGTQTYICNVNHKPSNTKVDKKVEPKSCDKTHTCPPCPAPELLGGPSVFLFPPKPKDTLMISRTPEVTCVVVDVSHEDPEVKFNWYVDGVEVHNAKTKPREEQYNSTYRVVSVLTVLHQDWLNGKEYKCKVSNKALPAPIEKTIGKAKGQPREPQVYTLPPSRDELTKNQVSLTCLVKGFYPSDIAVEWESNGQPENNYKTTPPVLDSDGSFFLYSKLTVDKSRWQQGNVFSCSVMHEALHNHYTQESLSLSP
light: B1 light
notes: Mutation in both H chains; also called S337_01G Ho Ab
Turning to B11, the Ho/Con_3a in test [4] is 108 % of GpH7-B3/GpL16-k0 (=100).

B12: GpH7-A5/GpH7-B3 variant T335_09D/GpL16-k0 (heterodimerized antibody, He Ab) (antibody, human IgG1, kappa)
heavy 1: not shown
heavy 2: not shown
light: B1 light
notes: Mutation in one H chain only; also called T335_09D He Ab
With B12, the He/Con_3a in test [4] was 108 % of GpH7-A5/GpH7-B3/GpL16-k0 (=100).

B13: GpH7-A5/GpH7-B3 variant S324_20W/GpL16-k0 (heterodimerized antibody, He Ab) (antibody, human IgG1, kappa)
heavy 1: not shown
heavy 2: not shown
light: B1 light
notes: Mutation in one H chain only; also called S324_20W He Ab
As to B13, the He/Con_3a in test [4] was 102 % of GpH7-A5/GpH7-B3/GpL16-k0 (=100).

B14: GpH7-A5/GpH7-B3 variant S324_14T/GpL16-k0 (heterodimerized antibody, He Ab) (antibody, human IgG1, kappa)
heavy 1: not shown
heavy 2: not shown
light: B1 light
notes: Mutation in one H chain only; also called S324_14T He Ab
Turning to B14, the He/Con_3a in test [4] is 103 % of GpH7-A5/GpH7-B3/GpL16-k0 (=100).

B15: GpH7-A5/GpH7-B3 variant A327_10E/GpL16-k0 (antibody, human IgG1, kappa)
heavy 1: not shown
heavy 2: not shown
light: B1 light
notes: as for B1
With B15, the He_2aH/2b in test [1] is 0.65 ratio. Moreover, the He/Con_2aH in test [2] is 91.3 relative (control = 100). The He/Con_2b in test [3] is 140 relative (control = 100).

B16: GpH7-B3 variant Y296_20W/GpL16-k0 (homodimerized antibody, Ho Ab) (antibody, human IgG1, kappa)
heavy: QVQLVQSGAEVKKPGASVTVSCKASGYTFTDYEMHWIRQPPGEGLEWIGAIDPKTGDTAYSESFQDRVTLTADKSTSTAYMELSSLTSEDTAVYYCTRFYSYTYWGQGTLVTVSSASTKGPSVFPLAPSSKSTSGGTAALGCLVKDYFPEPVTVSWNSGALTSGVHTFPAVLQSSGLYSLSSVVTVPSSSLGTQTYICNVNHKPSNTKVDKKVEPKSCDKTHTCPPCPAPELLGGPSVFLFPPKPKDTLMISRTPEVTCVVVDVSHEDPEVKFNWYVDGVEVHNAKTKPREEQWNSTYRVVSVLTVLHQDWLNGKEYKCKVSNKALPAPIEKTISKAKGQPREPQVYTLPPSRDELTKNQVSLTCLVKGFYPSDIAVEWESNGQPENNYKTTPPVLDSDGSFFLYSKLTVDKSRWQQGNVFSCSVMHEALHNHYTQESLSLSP
light: B1 light
notes: Mutation in both H chains; also called Y296_20W Ho Ab
As to B16, in test [4], the Ho/Con_3a is 146 % of GpH7-B3/GpL16-k0 (=100).

B17: GpH7-A5/GpH7-B3 variant S239_18N/GpL16-k0 (heterodimerized antibody, He Ab) (antibody, human IgG1, kappa)
heavy 1: not shown
heavy 2: not shown
light: B1 light
notes: Mutation in one H chain only; also called S239_18N He Ab
Consider B17, for which the He/Con_3a in test [4] is 110 % of GpH7-A5/GpH7-B3/GpL16-k0 (=100).

B18: GpH7-A5/GpH7-B3 variant S324_06M/GpL16-k0 (antibody, human IgG1, kappa)
heavy 1: not shown
heavy 2: not shown
light: B1 light
notes: heterodimerized IgG1; alteration in the GpH7-B3 H chain only; also called He Ab
B18: the He/Con_1a in test [5] is 99.2 % of control. In addition, in test [6], the He/Con_2b was 112 % of control.

B19: GpH7-A5/GpH7-B3 variant T335_08L/GpL16-k0 (heterodimerized antibody, He Ab) (antibody, human IgG1, kappa)
heavy 1: not shown
heavy 2: not shown
light: B1 light
notes: Mutation in one H chain only; also called T335_08L He Ab
Turning to B19, in test [4], the He/Con_3a was 102 % of GpH7-A5/GpH7-B3/GpL16-k0 (=100).

B20: GpH7-B3 variant S324_20W/GpL16-k0 (homodimerized antibody, Ho Ab) (antibody, human IgG1, kappa)
heavy: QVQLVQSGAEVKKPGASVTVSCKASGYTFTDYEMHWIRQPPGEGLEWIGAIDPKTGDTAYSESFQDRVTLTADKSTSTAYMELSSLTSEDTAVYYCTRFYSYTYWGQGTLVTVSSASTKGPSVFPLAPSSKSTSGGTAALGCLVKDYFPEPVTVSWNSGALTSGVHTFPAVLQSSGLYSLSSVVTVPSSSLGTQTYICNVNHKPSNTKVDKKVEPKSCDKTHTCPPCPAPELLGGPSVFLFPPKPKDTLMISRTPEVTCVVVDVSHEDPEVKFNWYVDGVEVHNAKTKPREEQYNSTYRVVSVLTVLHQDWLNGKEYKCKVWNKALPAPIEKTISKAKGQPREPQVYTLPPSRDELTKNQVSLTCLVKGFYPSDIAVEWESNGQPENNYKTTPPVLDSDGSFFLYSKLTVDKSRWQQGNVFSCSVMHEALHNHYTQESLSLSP
light: B1 light
notes: Mutation in both H chains; also called S324_20W Ho Ab
In the case of B20, the Ho/Con_3a in test [4] is 102 % of GpH7-B3/GpL16-k0 (=100).
